Our source for the Kd values is PMC8937303.

For this experiment, the target named is pFGFR2_(Cyto) (UniProt P21802). Description: MST.
pFGFR2_(Cyto), sequence (P21802 400-821): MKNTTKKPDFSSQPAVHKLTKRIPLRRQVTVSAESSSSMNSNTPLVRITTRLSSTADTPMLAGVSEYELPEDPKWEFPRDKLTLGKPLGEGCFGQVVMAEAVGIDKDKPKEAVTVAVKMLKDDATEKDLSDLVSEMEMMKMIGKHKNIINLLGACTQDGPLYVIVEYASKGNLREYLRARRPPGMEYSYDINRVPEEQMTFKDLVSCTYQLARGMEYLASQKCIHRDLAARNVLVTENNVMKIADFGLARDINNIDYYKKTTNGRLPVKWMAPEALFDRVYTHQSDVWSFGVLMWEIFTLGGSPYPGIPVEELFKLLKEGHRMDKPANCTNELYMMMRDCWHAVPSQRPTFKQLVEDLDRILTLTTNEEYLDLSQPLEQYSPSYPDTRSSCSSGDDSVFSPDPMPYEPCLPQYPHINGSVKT

As to “PLCγ1_(2SH2) (from UniProt P19174 545-791) (domain or fragment)”, the Kd was found to be 0.223 µM. “SHP2_(2SH2) (from UniProt Q06124 1-221) (domain or fragment)”: the Kd was determined as 25.1 µM.

Usually Kd stands for the constant that tells how readily two partners part at equilibrium. Lower therefore signals a tighter complex.
